Source: patent US20150344570A1 (published 2015)

B1: GpH7-A5/GpH7-B3 variant K334_01G/GpL16-k0 (antibody, human IgG1, kappa)
heavy 1: not shown
heavy 2: not shown
light: DIVMTQSPLSLPVTPGEPASISCQASESLVHSNRNTYLHWYLQKPGQSPQLLIYKVSNRFSGVPDRFSGSGSGTDFTLKISRVEAEDVGVYYCSQNTHVPPTFGQGTKVEIERTVAAPSVFIFPPSDEQLKSGTASVVCLLNNFYPREAKVQWKVDNALQSGNSQESVTEQDSKDSTYSLSSTLTLSKADYEKHKVYACEVTHQGLSSPVTKSFNRGEC
notes: Alteration in one H chain only; also called He Ab K334_01G
B2: GpH7-A5/GpH7-B3 variant K334_14T/GpL16-k0 (antibody, human IgG1, kappa)
heavy 1: not shown
heavy 2: not shown
light: B1 light
notes: Alteration in one H chain only; also called He Ab K334_14T
B3: GpH7-A5/GpH7-B3 variant K334_08L/GpL16-k0 (antibody, human IgG1, kappa)
heavy 1: not shown
heavy 2: not shown
light: B1 light
notes: Alteration in one H chain only; also called He Ab K334_08L
B4: GpH7-A5/GpH7-B3 variant P271_01G/GpL16-k0 (antibody, human IgG1, kappa)
heavy 1: not shown
heavy 2: not shown
light: B1 light
notes: Alteration in one H chain only; also called He Ab P271_01G
B5: GpH7-A5/GpH7-B3 variant K326_19Q/GpL16-k0 (antibody, human IgG1, kappa)
heavy 1: not shown
heavy 2: not shown
light: B1 light
notes: Alteration in one H chain only; also called He Ab K326_19Q
B6: GpH7-A5/GpH7-B3 variant K334_09D/GpL16-k0 (antibody, human IgG1, kappa)
heavy 1: not shown
heavy 2: not shown
light: B1 light
notes: Alteration in one H chain only; also called He Ab K334_09D
B7: GpH7-A5/GpH7-B3 variant S337_14T/GpL16-k0 (antibody, human IgG1, kappa)
heavy 1: not shown
heavy 2: not shown
light: B1 light
notes: Alteration in one H chain only; also called He Ab S337_14T
B8: GpH7-A5/GpH7-B3 variant S298_09D/GpL16-k0 (antibody, human IgG1, kappa)
heavy 1: not shown
heavy 2: not shown
light: B1 light
notes: Alteration in one H chain only; also called He Ab S298_09D
B9: GpH7-A5/GpH7-B3 variant S267_10E/GpL16-k0 (antibody, human IgG1, kappa)
heavy 1: not shown
heavy 2: not shown
light: B1 light
notes: Alteration in one H chain only; also called He Ab S267_10E
B10: GpH7-A5/GpH7-B3 variant Q295_12R/GpL16-k0 (antibody, human IgG1, kappa)
heavy 1: not shown
heavy 2: not shown
light: B1 light
notes: Alteration in one H chain only; also called He Ab Q295_12R
B11: GpH7-A5/GpH7-B3 variant K326_04F/GpL16-k0 (antibody, human IgG1, kappa)
heavy 1: not shown
heavy 2: not shown
light: B1 light
notes: Alteration in one H chain only; also called He Ab K326_04F
B12: GpH7-A5/GpH7-B3 variant P271_10E/GpL16-k0 (antibody, human IgG1, kappa)
heavy 1: not shown
heavy 2: not shown
light: B1 light
notes: Alteration in one H chain only; also called He Ab P271_10E
B13: GpH7-A5/GpH7-B3 variant L328_15Y/GpL16-k0 (antibody, human IgG1, kappa)
heavy 1: not shown
heavy 2: not shown
light: B1 light
notes: Alteration in one H chain only; also called He Ab L328_15Y
B14: GpH7-A5/GpH7-B3 variant P271_08L/GpL16-k0 (antibody, human IgG1, kappa)
heavy 1: not shown
heavy 2: not shown
light: B1 light
notes: Alteration in one H chain only; also called He Ab P271_08L
B15: GpH7-A5/GpH7-B3 variant S337_16H/GpL16-k0 (antibody, human IgG1, kappa)
heavy 1: not shown
heavy 2: not shown
light: B1 light
notes: Alteration in one H chain only; also called He Ab S337_16H
B16: GpH7-A5/GpH7-B3 variant T335_13S/GpL16-k0 (antibody, human IgG1, kappa)
heavy 1: not shown
heavy 2: not shown
light: B1 light
notes: Alteration in one H chain only; also called He Ab T335_13S
B17: GpH7-A5/GpH7-B3 variant Y296_07I/GpL16-k0 (antibody, human IgG1, kappa)
heavy 1: not shown
heavy 2: not shown
light: B1 light
notes: Alteration in one H chain only; also called He Ab Y296_07I
B18: GpH7-A5/GpH7-B3 variant K334_07I/GpL16-k0 (antibody, human IgG1, kappa)
heavy 1: not shown
heavy 2: not shown
light: B1 light
notes: Alteration in one H chain only; also called He Ab K334_07I
B19: GpH7-A5/GpH7-B3 variant S324_09D/GpL16-k0 (antibody, human IgG1, kappa)
heavy 1: not shown
heavy 2: not shown
light: B1 light
notes: Alteration in one H chain only; also called He Ab S324_09D
B20: GpH7-A5/GpH7-B3 variant Y296_02A/GpL16-k0 (antibody, human IgG1, kappa)
heavy 1: not shown
heavy 2: not shown
light: B1 light
notes: Alteration in one H chain only; also called He Ab Y296_02A
B21: GpH7-A5/GpH7-B3 variant P271_19Q/GpL16-k0 (antibody, human IgG1, kappa)
heavy 1: not shown
heavy 2: not shown
light: B1 light
notes: Alteration in one H chain only; also called He Ab P271_19Q
B22: GpH7-A5/GpH7-B3 variant T335_01G/GpL16-k0 (antibody, human IgG1, kappa)
heavy 1: not shown
heavy 2: not shown
light: B1 light
notes: Alteration in one H chain only; also called He Ab T335_01G
B23: GpH7-A5/GpH7-B3 variant K326_08L/GpL16-k0 (antibody, human IgG1, kappa)
heavy 1: not shown
heavy 2: not shown
light: B1 light
notes: Alteration in one H chain only; also called He Ab K326_08L
B24: GpH7-A5/GpH7-B3 variant K334_16H/GpL16-k0 (antibody, human IgG1, kappa)
heavy 1: not shown
heavy 2: not shown
light: B1 light
notes: Alteration in one H chain only; also called He Ab K334_16H
B25: GpH7-A5/GpH7-B3 variant K334_15Y/GpL16-k0 (antibody, human IgG1, kappa)
heavy 1: not shown
heavy 2: not shown
light: B1 light
notes: Alteration in one H chain only; also called He Ab K334_15Y
B26: GpH7-A5/GpH7-B3 variant K334_02A/GpL16-k0 (antibody, human IgG1, kappa)
heavy 1: not shown
heavy 2: not shown
light: B1 light
notes: Alteration in one H chain only; also called He Ab K334_02A
B27: GpH7-A5/GpH7-B3 variant S267_06M/GpL16-k0 (antibody, human IgG1, kappa)
heavy 1: not shown
heavy 2: not shown
light: B1 light
notes: Alteration in one H chain only; also called He Ab S267_06M
B28: GpH7-A5/GpH7-B3 variant S267_19Q/GpL16-k0 (antibody, human IgG1, kappa)
heavy 1: not shown
heavy 2: not shown
light: B1 light
notes: Alteration in one H chain only; also called He Ab S267_19Q
B29: GpH7-A5/GpH7-B3 variant K326_10E/GpL16-k0 (antibody, human IgG1, kappa)
heavy 1: not shown
heavy 2: not shown
light: B1 light
notes: Alteration in one H chain only; also called He Ab K326_10E
B30: GpH7-A5/GpH7-B3 variant K326_06M/GpL16-k0 (antibody, human IgG1, kappa)
heavy 1: not shown
heavy 2: not shown
light: B1 light
notes: Alteration in one H chain only; also called He Ab K326_06M

Each binder was assayed against T1, FcγRIa (human, UniProt P12314 16-292) (assay: SPR (Biacore), relative binding; control HeCon Ab GpH7-A5/GpH7-B3/GpL16-k0).
T1 construct: extracellular domain; also called FcgRI; FcgRIa; not shown: His tag attached to the C terminus
T1 sequence (P12314 16-292): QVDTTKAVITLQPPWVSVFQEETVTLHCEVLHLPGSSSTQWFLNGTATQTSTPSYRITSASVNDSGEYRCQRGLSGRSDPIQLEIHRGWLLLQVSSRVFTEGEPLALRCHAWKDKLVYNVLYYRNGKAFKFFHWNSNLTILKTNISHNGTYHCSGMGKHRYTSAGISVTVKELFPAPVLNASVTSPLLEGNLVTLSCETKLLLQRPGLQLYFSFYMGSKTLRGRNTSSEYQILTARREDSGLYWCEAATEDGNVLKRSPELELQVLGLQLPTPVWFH

| He/Con_1a | Binder |
| --- | --- |
| 104 % of control (=100) | B1 |
| 105 % of control (=100) | B2 |
| 105 % of control (=100) | B3 |
| 105 % of control (=100) | B4 |
| 102 % of control (=100) | B5 |
| 106 % of control (=100) | B6 |
| 105 % of control (=100) | B7 |
| 106 % of control (=100) | B8 |
| 106 % of control (=100) | B9 |
| 100 % of control (=100) | B10 |
| 102 % of control (=100) | B11 |
| 103 % of control (=100) | B12 |
| 102 % of control (=100) | B13 |
| 102 % of control (=100) | B14 |
| 105 % of control (=100) | B15 |
| 105 % of control (=100) | B16 |
| 104 % of control (=100) | B17 |
| 104 % of control (=100) | B18 |
| 104 % of control (=100) | B19 |
| 103 % of control (=100) | B20 |
| 103 % of control (=100) | B21 |
| 104 % of control (=100) | B22 |
| 100 % of control (=100) | B23 |
| 105 % of control (=100) | B24 |
| 105 % of control (=100) | B25 |
| 106 % of control (=100) | B26 |
| 106 % of control (=100) | B27 |
| 102 % of control (=100) | B28 |
| 104 % of control (=100) | B29 |
| 102 % of control (=100) | B30 |
